Assay results published in IntAct's records for PubMed 29892012.

Experiments:
cryaa_human CRYAA = biological target: T1, cryaa_human CRYAA (UniProt P02489)
T1 sequence: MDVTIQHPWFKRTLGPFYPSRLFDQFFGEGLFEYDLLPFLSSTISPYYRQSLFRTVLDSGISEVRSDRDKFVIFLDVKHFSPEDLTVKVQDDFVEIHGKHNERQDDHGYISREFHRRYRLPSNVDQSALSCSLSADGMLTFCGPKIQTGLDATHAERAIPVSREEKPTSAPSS

traf2_human TRAF2 = biological target: T2, traf2_human TRAF2 (UniProt Q12933)
T2 sequence: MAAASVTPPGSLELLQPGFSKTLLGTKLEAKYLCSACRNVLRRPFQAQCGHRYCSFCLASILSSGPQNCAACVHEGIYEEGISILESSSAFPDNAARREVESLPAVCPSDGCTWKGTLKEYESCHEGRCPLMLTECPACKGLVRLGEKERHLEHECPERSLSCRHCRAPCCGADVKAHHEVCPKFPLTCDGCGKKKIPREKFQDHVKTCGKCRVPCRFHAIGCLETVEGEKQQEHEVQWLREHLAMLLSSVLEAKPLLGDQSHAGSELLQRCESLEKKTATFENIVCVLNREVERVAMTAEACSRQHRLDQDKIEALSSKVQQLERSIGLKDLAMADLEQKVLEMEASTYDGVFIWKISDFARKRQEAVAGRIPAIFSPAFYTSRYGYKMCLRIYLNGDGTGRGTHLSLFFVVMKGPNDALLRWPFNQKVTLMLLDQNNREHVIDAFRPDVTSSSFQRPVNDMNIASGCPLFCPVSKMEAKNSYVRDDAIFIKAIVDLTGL

itf2_human TCF4 = itf2_human TCF4 (UniProt P15884)
Sequence of itf2_human TCF4 (P15884 whole entry): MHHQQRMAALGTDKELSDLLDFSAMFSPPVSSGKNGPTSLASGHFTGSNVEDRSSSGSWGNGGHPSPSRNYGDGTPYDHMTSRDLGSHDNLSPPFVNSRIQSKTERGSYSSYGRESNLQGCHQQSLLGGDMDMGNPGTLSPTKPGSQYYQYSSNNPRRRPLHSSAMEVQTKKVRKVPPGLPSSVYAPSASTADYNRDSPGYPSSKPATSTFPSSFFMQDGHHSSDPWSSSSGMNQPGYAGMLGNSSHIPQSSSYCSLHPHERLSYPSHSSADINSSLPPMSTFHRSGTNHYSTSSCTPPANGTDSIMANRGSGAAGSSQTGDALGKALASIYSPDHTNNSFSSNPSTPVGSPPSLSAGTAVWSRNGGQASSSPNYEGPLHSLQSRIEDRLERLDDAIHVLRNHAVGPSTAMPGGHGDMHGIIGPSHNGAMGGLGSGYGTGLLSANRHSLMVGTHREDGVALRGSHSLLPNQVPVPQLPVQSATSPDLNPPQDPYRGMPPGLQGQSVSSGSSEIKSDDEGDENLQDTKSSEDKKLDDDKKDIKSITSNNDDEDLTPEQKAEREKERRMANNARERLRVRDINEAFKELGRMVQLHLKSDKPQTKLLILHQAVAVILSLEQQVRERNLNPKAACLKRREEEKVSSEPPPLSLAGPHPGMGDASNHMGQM

Measured: effect of a mutation on the interaction

Golgi reassembly-stacking protein 2 (Homo sapiens) (from UniProt Q9H8Y8) L320R
with no effect: all assays above
